Results published in patent EP0669979B1 (GENENTECH, INC., dated 2005).

T1: C-C chemokine receptor 1 (C-C CKR-1) (human, UniProt P32246 1-355)
T1 construct: Transiently expressed from pRK5 in human embryonic kidney 293 cells; also called JOSH1; cloned C-C CKR-1
T1 sequence: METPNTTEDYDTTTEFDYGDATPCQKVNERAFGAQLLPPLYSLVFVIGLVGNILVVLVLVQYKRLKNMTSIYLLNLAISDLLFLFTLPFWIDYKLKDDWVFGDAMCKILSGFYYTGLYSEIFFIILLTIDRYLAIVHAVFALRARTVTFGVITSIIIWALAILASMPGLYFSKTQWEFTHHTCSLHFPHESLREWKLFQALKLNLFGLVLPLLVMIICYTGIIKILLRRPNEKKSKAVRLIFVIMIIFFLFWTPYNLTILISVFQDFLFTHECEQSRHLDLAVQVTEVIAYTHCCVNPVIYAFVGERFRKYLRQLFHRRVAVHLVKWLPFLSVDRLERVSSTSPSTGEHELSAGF


Columns and labels:
[1] = target: T1, C-C chemokine receptor 1 (C-C CKR-1); experiment: heterologous displacement of 125I-RANTES by unlabeled HuMIP-1α on 293 cells expressing C-C CKR-1, Scatchard analysis
[2] = target: T1, C-C chemokine receptor 1 (C-C CKR-1); experiment: 125I-HuMIP-1α displaced by unlabeled HuMIP-1α on 293 cells expressing C-C CKR-1, 4 °C, Scatchard analysis
[3] = target: T1, C-C chemokine receptor 1 (C-C CKR-1); experiment: heterologous displacement of 125I-HuMIP-1α on 293 cells expressing C-C CKR-1, Scatchard analysis

Row | Binder | Kd [1] [nM] | Kd [2] [nM] | Kd [3] [nM]
1 | human MIP-1α (HuMIP-1α) (ligand, UniProt P10147 24-92, looked up, ends and bridges not checked; also: 125I-iodinated (chloroglycoluril) where used as tracer, also called HuMIP-1a) SLAADTPTACCFSYTSRQIPQNFIADYFETSSQCSKPGVIFLTKRSRQVCADPSEEWVQKYVSDLELSA | 7.6 | 5.1 | 
2 | murine MIP-1α (ligand, UniProt P10855 24-92, looked up) APYGADTPTACCFSYSRKIPRQFIVDYFETSSLCSQPGVIFLTKRNRQICADSKETWVQEYITDLELNA |  |  | 4.2
3 | RANTES (Regulated on Activation, Normal T Expressed and Secreted) (ligand, UniProt P13501 24-91, looked up, ends and bridges not checked; also: 125I-labeled where used as tracer) SPYSSDTTPCCFAYIARPLPRAHIKEYFYTSGKCSNPAVVFVTRKNRQVCANPEKKWVREYINSLEMS |  |  | 468
4 | human MIP-1β (HuMIP-1β) (ligand, UniProt P13236 24-92, looked up, also called HuMIP-1b; MIP-lb) APMGSDPPTACCFSYTARKLPRNFVVDYYETSSLCSQPAVVFQTKRSKQVCADPSESWVQEYVYDLELN |  |  | 232
